Assay results: US20260071002A1 (Hoffmann-La Roche, published 2026)
Like-named read-outs stand apart in the source and are kept apart here.

Columns and labels:
human CEACAM5 [1] = target: T1, human CEACAM5 (human, UniProt P06731 35-685); test: FACS on MKN-45 cells expressing human CEACAM5
T1 construct: whole, on cells; Target on MKN-45 (DSMZ ACC409) and LS180 (ATCC CL-187) cells; also called carcinoembryonic antigen-related cell adhesion molecule 5; CD66e
T1 sequence (looked up): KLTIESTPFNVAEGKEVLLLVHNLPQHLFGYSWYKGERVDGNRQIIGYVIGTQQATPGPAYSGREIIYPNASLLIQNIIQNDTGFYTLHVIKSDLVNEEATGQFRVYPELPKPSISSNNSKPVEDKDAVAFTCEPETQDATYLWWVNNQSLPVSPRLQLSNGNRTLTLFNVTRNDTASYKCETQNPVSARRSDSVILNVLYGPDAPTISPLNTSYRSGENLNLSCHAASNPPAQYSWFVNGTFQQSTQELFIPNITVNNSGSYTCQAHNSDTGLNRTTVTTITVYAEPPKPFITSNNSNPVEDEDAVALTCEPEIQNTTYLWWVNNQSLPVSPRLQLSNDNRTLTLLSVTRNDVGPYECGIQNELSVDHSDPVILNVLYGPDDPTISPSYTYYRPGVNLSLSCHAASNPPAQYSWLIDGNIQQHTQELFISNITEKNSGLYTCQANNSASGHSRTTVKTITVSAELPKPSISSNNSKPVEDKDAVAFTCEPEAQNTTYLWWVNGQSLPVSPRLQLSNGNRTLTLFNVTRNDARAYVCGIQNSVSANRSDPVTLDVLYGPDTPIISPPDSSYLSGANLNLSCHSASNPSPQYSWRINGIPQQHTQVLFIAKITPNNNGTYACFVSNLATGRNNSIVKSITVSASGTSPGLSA
Procedure: The cellular binding assay was performed as follows.
(§1) 10 μl of a 1×10⁴ MKN-45 (DSMZ ACC409) cell suspension in assay buffer was seeded in all Wells of a 384 well polypropylene plate (Weidmann #23490-101). Then 10 μl of antibodies diluted in assay buffer (double concentrated), at a start concentration of 100 μg/ml, serially diluted 1:4 were added to the plate. After 90 minutes incubation at 4° C., 60 μl assay buffer was added followed by a centrifuge step (330×g, 5 min) and an aspirating step (BioTek washer 405H) where 60 μl of supernatant were discarded. 20 μl of detection antibody (Alpaca anti rabbit IgG Chromotek #srbAF647-1) diluted in assay buffer (double concentrated) to a final concentration of 0.5 μg/ml was added to all Wells followed by 1 hour incubation time at room temperature. The cells were then subjected to two washing steps with 40 μl and 60 μl assay buffer as described above and then resuspended in 20 μl assay buffer. Cell binding was measured on an iQue Screener Plus high throughput FACS device from Sartorius/Intellicyt.

human CEACAM5 [2] = target: T1, human CEACAM5; test: FACS on MKN-45 cells expressing human CEACAM5; remark: listed apart in the source
Procedure: as §1

B1: P1AH2350 (antibody, name in Kabat numbering, V domains shown)
VH: QVQLVQSGAEVKKPGSSVKVSCKASGFNIKDTYMHWVRQAPGQGLEWMGRIDPANGNSKYVPKFQGRVTITADTSTSTAYMELSSLRSEDTAVYYCAVFGYYVSDYAMAYWGQGTLVTVSS
VL: EIVLTQSPATLSLSPGERATLSCRAGESVDIFGVGFLHWYQQKPGQAPRLLIYRASNRATGIPARFSGSGSGTDFTLTISSLEPEDFAVYYCQQTNEDPYTFGQGTKLEIK
Human CEACAM5 [1]
  EC50: 30.1 nM

B2: P1AH2354 (antibody, human IgG1, name in Kabat numbering, V domains shown)
VH: QVQLVQSGAEVKKPGSSVKVSCKASGFNIKDTYMHWVRQAPGQGLEWMGRIDPANGNSKYVPKFQGRVTITADTSTSTAYMELSSLRSEDTAVYYCASFGYYVSDYAMAYWGQGTLVTVSS
VL: EIVLTQSPATLSLSPGERATLSCRAGESVDIFGVGFLHWYQQKPGQAPRLLIYRASNRATGIPARFSGSGSGTDFTLTISSLEPEDFAVYYCQQTNEDPYTFGQGTKLEIK
notes: Kabat positions
Human CEACAM5 [1]
  EC50: 20.4 nM

B3: P1AH2352 (antibody, human IgG1, name in Kabat numbering, V domains shown)
VH: QVQLVQSGAEVKKPGSSVKVSCKASGFNIKDTYMHWVRQAPGQGLEWMGRIDPANGNSKYVPKFQGRVTITADTSTSTAYMELSSLRSEDTAVYYCATFGYYVSDYAMAYWGQGTLVTVSS
VL: EIVLTQSPATLSLSPGERATLSCRAGESVDIFGVGFLHWYQQKPGQAPRLLIYRASNRATGIPARFSGSGSGTDFTLTISSLEPEDFAVYYCQQTNEDPYTFGQGTKLEIK
notes: Kabat positions
Human CEACAM5 [1]
  EC50: 21.9 nM

B4: P1AI5030 (antibody, human IgG1, name in Kabat numbering, V domains shown)
VH: EVQLVESGGGLVQPGGSLRLSCAASGFNIKDTYMHWVRQAPGKGLEWVGRIDPANGNSKYADSVKGRFTISADTSKNTAYLQMNSLRAEDTAVYYCAPFGYYVSDYAMAYWGQGTTVTVSS
VL: EIVLTQSPATLSLSPGERATLSCRAGESVDIFGVGFLHWYQQKPGQAPRLLIYRGSNRATGIPARFSGSGSGTDFTLTISSLEPEDFAYYYCGQTNEDPYTFGQGTKLEIK
Human CEACAM5 [2]
  EC50: 11.2 µg/mL

B5: P1AI5029 (antibody, human IgG1, name in Kabat numbering, V domains shown)
VH: EVQLVESGGGLVQPGGSLRLSCAASGFNIKDTYMHWVRQAPGKGLEWVGRIDPANGNSKYADSVKGRFTISADTSKNTAYLQMNSLRAEDTAVYYCAPFGYYVSDYAMAYWGQGTTVTVSS
VL: EIVLTQSPATLSLSPGERATLSCRAGESVDIFGVGFLHWYQQKPGQAPRLLIYRGSNRATGIPARFSGSGSGTDFTLTISSLEPEDFAVYYCGQTKEDPYTFGQGTKLEIK
Human CEACAM5 [2]
  EC50: 1.92 µg/mL

B6: P1AI5028 (antibody, human IgG1, name in Kabat numbering, V domains shown)
VH: EVQLVESGGGLVQPGGSLRLSCAASGFNIKDTYMHWVRQAPGKGLEWVGRIDPANGNSKYADSVKGRFTISADTSKNTAYLQMNSLRAEDTAVYYCAPFGYYVSDYAMAYWGQGTTVTVSS
VL: EIVLTQSPATLSLSPGERATLSCRAGESVDIFGVGFLHWYQQKPGQAPRLLIYRGSNRATGIPARFSGSGSGTDFTLTISSLEPEDFAVYYCGQTHEDPYTFGQGTKLEIK
Human CEACAM5 [2]
  EC50: 7.51 µg/mL

B7: P1AI5019 (antibody, human IgG1, name in Kabat numbering, V domains shown)
VH: EVQLVESGGGLVQPGGSLRLSCAASGFNIKDTYMHWVRQAPGKGLEWVGRIDPANGNSKYADSVKGRFTISADTSKNTAYLQMNSLRAEDTAVYYCAPFGYYVSDYAMAYWGQGTTVTVSS
VL: EIVLTQSPATLSLSPGERATLSCRAGESVDIFGVGFLHWYQQKPGQAPRLLIYRGSNRATGIPARFSGSGSGTDFTLTISSLEPEDFAVYYCGQTNEDYYTFGQGTKLEIK
Human CEACAM5 [2]
  EC50: 2.49 µg/mL

B8: P1AH2357 (antibody, name in Kabat numbering, V domains shown)
VH: QVQLVQSGAEVKKPGSSVKVSCKASGFNIKSTYMHWVRQAPGQGLEWMGRIDPANGNSKYVPKFQGRVTITADTSTSTAYMELSSLRSEDTAVYYCAPFGYYVSDYAMAYWGQGTLVTVSS
VL: EIVLTQSPATLSLSPGERATLSCRAGESVDIFGVGFLHWYQQKPGQAPRLLIYRASNRATGIPARFSGSGSGTDFTLTISSLEPEDFAVYYCQQTNEDPYTFGQGTKLEIK
Human CEACAM5 [1]
  EC50: 2.3 nM

B9: P1AI5023 (antibody, human IgG1, name in Kabat numbering, V domains shown)
VH: EVQLVESGGGLVQPGGSLRLSCAASGFNIKDTYMHWVRQAPGKGLEWVGRIDPANGNSKYADSVKGRFTISADTSKNTAYLQMNSLRAEDTAVYYCAPFGYYVSDYAMAYWGQGTTVTVSS
VL: EIVLTQSPATLSLSPGERATLSCRAGESVDIFGVGFLHWYQQKPGQAPRLLIYRGSNRATGIPARFSGSGSGTDFTLTISSLEPEDFAVYYCGQTNEHPYTFGQGTKLEIK
Human CEACAM5 [2]
  EC50: 7.21 µg/mL

B10: P1AI5024 (antibody, human IgG1, name in Kabat numbering, V domains shown)
VH: EVQLVESGGGLVQPGGSLRLSCAASGFNIKDTYMHWVRQAPGKGLEWVGRIDPANGNSKYADSVKGRFTISADTSKNTAYLQMNSLRAEDTAVYYCAPFGYYVSDYAMAYWGQGTTVTVSS
VL: EIVLTQSPATLSLSPGERATLSCRAGESVDIFGVGFLHWYQQKPGQAPRLLIYRGSNRATGIPARFSGSGSGTDFTLTISSLEPEDFAVYYCGQTYEDPYTFGQGTKLEIK
Human CEACAM5 [2]
  EC50: 11.5 µg/mL

B11: P1AI5021 (antibody, human IgG1, name in Kabat numbering, V domains shown)
VH: EVQLVESGGGLVQPGGSLRLSCAASGFNIKDTYMHWVRQAPGKGLEWVGRIDPANGNSKYADSVKGRFTISADTSKNTAYLQMNSLRAEDTAVYYCAPFGYYVSDYAMAYWGQGTTVTVSS
VL: EIVLTQSPATLSLSPGERATLSCRAGESVDIFGVGFLHWYQQKPGQAPRLLIYRGSNRATGIPARFSGSGSGTDFTLTISSLEPEDFAVYYCGQTNEPPYTFGQGTKLEIK
Human CEACAM5 [2]
  EC50: 1.62 µg/mL

B12: P1AI5013 (antibody, human IgG1, V domains shown)
VH: EVQLVESGGGLVQPGGSLRLSCAASGFNIKDTYMHWVRQAPGKGLEWVGRIDPANGNSKYADSVKGRFTISADTSKNTAYLQMNSLRAEDTAVYYCAPFGYYVSDYAMAYWGQGTTVTVSS
VL: EIVLTQSPATLSLSPGERATLSCRAGESVDHFGVGFLHWYQQKPGQAPRLLIYRASNRATGIPARFSGSGSGTDFTLTISSLEPEDFAVYYCQQTNEDPYTFGQGTKLEIK
Human CEACAM5 [2]
  EC50: 0.685 µg/mL

B13: P1AI5026 (antibody, human IgG1, name in Kabat numbering, V domains shown)
VH: EVQLVESGGGLVQPGGSLRLSCAASGFNIKDTYMHWVRQAPGKGLEWVGRIDPANGNSKYADSVKGRFTISADTSKNTAYLQMNSLRAEDTAVYYCAPFGYYVSDYAMAYWGQGTTVTVSS
VL: EIVLTQSPATLSLSPGERATLSCRAGESVDIFGVGFLHWYQQKPGQAPRLLIYRGSNRATGIPARFSGSGSGTDFTLTISSLEPEDFAVYYCGQTTEDPYTFGQGTKLEIK
Human CEACAM5 [2]
  EC50: 1.83 µg/mL

B14: P1AI5027 (antibody, human IgG1, name in Kabat numbering, V domains shown)
VH: EVQLVESGGGLVQPGGSLRLSCAASGFNIKDTYMHWVRQAPGKGLEWVGRIDPANGNSKYADSVKGRFTISADTSKNTAYLQMNSLRAEDTAVYYCAPFGYYVSDYAMAYWGQGTTVTVSS
VL: EIVLTQSPATLSLSPGERATLSCRAGESVDIFGVGFLHWYQQKPGQAPRLLIYRGSNRATGIPARFSGSGSGTDFTLTISSLEPEDFAVYYCGQTQEDPYTFGQGTKLEIK
Human CEACAM5 [2]
  EC50: 25.1 µg/mL

B15: P1AI5025 (antibody, human IgG1, name in Kabat numbering, V domains shown)
VH: EVQLVESGGGLVQPGGSLRLSCAASGFNIKDTYMHWVRQAPGKGLEWVGRIDPANGNSKYADSVKGRFTISADTSKNTAYLQMNSLRAEDTAVYYCAPFGYYVSDYAMAYWGQGTTVTVSS
VL: EIVLTQSPATLSLSPGERATLSCRAGESVDIFGVGFLHWYQQKPGQAPRLLIYRGSNRATGIPARFSGSGSGTDFTLTISSLEPEDFAVYYCGQTSEDPYTFGQGTKLEIK
Human CEACAM5 [2]
  EC50: 2.44 µg/mL

B16: P1AH2351 (antibody, human IgG1, name in Kabat numbering, V domains shown)
VH: QVQLVQSGAEVKKPGSSVKVSCKASGFNIKDTYMHWVRQAPGQGLEWMGRIDPANGNSKYVPKFQGRVTITADTSTSTAYMELSSLRSEDTAVYYCAAFGYYVSDYAMAYWGQGTLVTVSS
VL: EIVLTQSPATLSLSPGERATLSCRAGESVDIFGVGFLHWYQQKPGQAPRLLIYRASNRATGIPARFSGSGSGTDFTLTISSLEPEDFAVYYCQQTNEDPYTFGQGTKLEIK
notes: Kabat positions
Human CEACAM5 [1]
  EC50: 39.1 nM

B17: P1AI5032 (antibody, human IgG1, name in Kabat numbering, V domains shown)
VH: EVQLVESGGGLVQPGGSLRLSCAASGFNIKDTYMHWVRQAPGKGLEWVGRIDPANGNSKYADSVKGRFTISADTSKNTAYLQMNSLRAEDTAVYYCAPFGYYVSDYAMAYWGQGTTVTVSS
VL: EIVLTQSPATLSLSPGERATLSCRAGESVDHFGVGFLHWYQQKPGQAPRLLIYRGSNRATGIPARFSGSGSGTDFTLTISSLEPEDFAVYYCQQTNEDPYTFGQGTKLEIK
notes: Double mutant of T84.66-LCHA VL
Human CEACAM5 [2]
  EC50: 1.53 µg/mL
